Measurements from US8399206B2, “Methods for diagnosis, prognosis and methods of treatment” (Nodality, Inc., priority 2008, dated 2013).

B1: FLT-3L: fms-like tyrosine kinase receptor-3 ligand (protein, UniProt P49771 27-235, looked up)
Fms-related tyrosine kinase 3 …: TQDCSFQHSPISSDFAVKIRELSDYLLQDYPVTVASNLQDEELCGGLWRLVLAQRWMERLKTVAGSKMQGLLERVNTEIHFVTKCAFQPPPSCLRFVQTNISRLLQETSEQLVALKPWITRQNFSRCLELQCQPDSSTLPPPWSPRPLEATAPTAPQPPLLLLLLLPVGLLLLAAAWCLHWQRTRRRTPRPGEQVPPVPSPQDLLLVEH
B2: IL-27: interleukin-27 (protein, UniProt Q8NEV9 29-243; Q14213 21-229, looked up)
Interleukin-27 subunit alpha: FPRPPGRPQLSLQELRREFTVSLHLARKLLSEVRGQAHRFAESHLPGVNLYLLPLGEQLPDVSLTFQAWRRLSDPERLCFISTTLQPFHALLGGLGTQGRWTNMERMQLWAMRLDLRDLQRHLRFQVLAAGFNLPEEEEEEEEEEEEERKGLLPGALGSALQGPAQVSWPQLLSTYRLLHSLELVLSRAVRELLLLSKAGHSVWPLGFPTLSPQP
Interleukin-27 subunit beta: RKGPPAALTLPRVQCRASRYPIAVDCSWTLPPAPNSTSPVSFIATYRLGMAARGHSWPCLQQTPTSTSCTITDVQLFSMAPYVLNVTAVHPWGSSSSFVPFITEHIIKPDPPEGVRLSPLAERQLQVQWEPPGSWPFPEIFSLKYWIRYKRQGAARFHRVGPIEATSFILRAVRPRARYYVQVAAQDLTDYGELSDWSLPATATMSLGK

Tests used:
[1] = system: AML myeloblasts (BMMC); assay: SCNP of paired diagnosis and relapse AML BMMC and independent diagnostic set (Example 5); assay type: cell-based, human; conditions: paired diagnosis samples of Patients 1 and 2
From the text: All AML bone marrow mononuclear cells (BMMC) were derived from the bone marrow (BM) of AML patients treated at MD Anderson Cancer Center (MDACC) between September 1999 and September 2006. Clinical data were de-identified in compliance with Health Insurance Portability and Accountability Act regulations. Patient/sample inclusion criteria required a diagnosis of French-American-British (FAB) classification of M0 through M7 AML (excluding M3) AML, collection prior to therapy initiation and at least 50% viability upon sample thaw. For the identification of chemoresistant signaling profiles, two longitudinally paired BMMC samples at diagnosis (collection prior to the initiation of induction chemotherapy) and first relapse, were examined. An independent test set comprised of 47 BMMC samples collected at diagnosis from AML patients with a disease response of CR after high dose cytarabine based chemotherapy was used to assess the ability of the identified signaling profiles to predict disease relapse. Healthy, unstimulated BMMC (n=2) were purchased from a commercial source (All Cells) to serve as a control. All samples underwent fractionation over Ficoll-Hypaque prior to cryopreservation with 90% fetal bovine serum and 10% dimethyl sulfoxide and storage in liquid nitrogen.
The SCNP assay measured response to growth factors and cytokines involved in hematopoietic progenitor or myeloid biology (SCF, FLT3L, G-CSF, IL-27), drug transporter (ABCG2, MRP-1) and chemokine receptors (CXCR4) associated with adverse disease prognosis in AML, and the c-Kit growth factor receptor for SCF. The SCF and FLT3L-mediated PI3K/Akt and MAPK pathway is important for maintaining the hematopoietic stem cell pool; G-CSF-mediated Jak/STAT pathway activation is important for neutrophilic differentiation of hematopoietic progenitor cells; interleukin (IL)-27 mediated Jak/STAT pathway activation is important in regulating proliferation and differentiation of hematopoietic stem cells; CXCR4 expression is associated with disease relapse and decreased survival; and drug transporter expression levels (i.e. ABCG2 and MRP-1) are known to be associated with adverse prognosis in AML. All together, approximately 20 signaling nodes were evaluated in each sample.
SCNP assays were performed as described previously. Cryopreserved samples were thawed at 37° C. and washed once in warm PBS containing 10% FBS (HyClone, Waltham, Mass., USA) and 2 mM EDTA. […] The cells were re-suspended in RPMI containing 1% FBS, aliquoted to 100,000 cells/condition and rested for 1-2 hours at 37° C. […]

[2] = system: FLT3-WT and FLT3-ITD AML leukemic blasts; assay: SCNP signaling and apoptosis in FLT3-WT versus FLT3-ITD AML samples (Example 9); assay type: cell-based, human
From the text: This example identifies intracellular signaling pathways associated with FLT3 ITD in two independent cohorts of diagnostic AML samples that serve as an improvement over current clinical tools in the identification of clinically meaningful altered FLT 3 and has implications for cohort selection in the development of FLT3 inhibitors. The two cohorts of data were further analyzed to investigate the differences in signaling between FLT-WT and FLT-ITD samples. The first cohort of data (“study 1”) comprised the 34 samples from University Health Network outlined in Table 16 and Table 19. The second cohort of data (“study 2”) comprised an 83 sample subset of MD Anderson Cancer Center data outlined in Table 16 (and Table 19). The 83 sample subset was selected based on known FLT3 mutation status. Both cohorts of data were used to investigate differences in FLT3 signaling between leukemic blasts and control data.
In order to further characterize wild-type FLT receptor signaling in AML, we compared FLT3L-induced signaling in the myeloblast population of control BMMC samples with FLT3L-induced signaling in the leukemic blast population of FLT3-WT AML samples.
Univariate analysis, unadjusted for multiple testing, was performed sequentially and independently on the two study cohorts in order to identify signaling nodes that distinguished with FLT3-ITD from FLT3-WT AML patient samples. […] Results from both studies include the AUC, Wilcoxon and t-test p-value for each node, and the number/mean value of the samples in the FLT3-ITD and FLT3-WT AML groups with common stratifying nodes summarized in FIG. 23. Although the majority of the discussion herein is directed to nodes that had similar reponses within the two cohorts of data, some differences were observed between the two cohorts of data. These differences may have been due to the different clinical characteristics of the two cohorts of data, specifically biases in the data from UHN.

Molecule | responsive cells in diagnostic AML bone marrow samples [1] | FLT3L-induced PI3K and MAPK pathway activation ([2]; FLT3-ITD samples compared to FLT3-WT samples) | FLT3L-induced signaling at 15 minutes ([2]; FLT3-WT AML samples) | range of FLT3L-induced S6 signaling ([2]; FLT3-WT AML samples) | FLT3L-induced p-Akt and p-S6 ([2]; FLT3-WT AML samples, early time points (4 minutes, 10 minutes)) | responsive subpopulation in diagnosis samples [1] | responsiveness to IL-27 stimulation ([2]; FLT3-ITD samples) | IL-27-induced p-Stat responses ([2]; FLT3-WT samples)
B1 | ~1% | lower levels of induced and total PI3K and MAPK pathway activation | sustained p-Erk, p-CREB and p-Akt activation | wide range of S6 signaling | increased levels of p-Akt and p-S6 | – | – | –
B2 | – | – | – | – | – | no IL-27 responsive subpopulation was identified | minimal responsiveness | wide range of p-Stat responses
